In publication PMC10464304, “Refined read‐out: The hUHRF1 Tandem‐Tudor domain prefers binding to histone H3 tails containing K4me1 in the context of H3K9me2/3” (Protein Science : A Publication of the Protein Society, 2023) one finds Kd and fold preference over the H3K9me2 peptide data, which are given here for two molecules.

For experiment [1], the target named is T1, fluorescently labeled H3 peptide with K4me1 and K9me2 (Homo sapiens).
T1 chain: ARTKQTARKSTGGKAPRKQ
Nature of the experiment: FP. The following applies: domain or fragment; chains chain; modification not given; K4me1 (monomethyl-lysine at 4); K9me2 (dimethyl-lysine at 9); FITC-labeled.

For experiment [2], the target named is T2, fluorescently labeled H3 peptide carrying only K4me1 (Homo sapiens).
T2 chain: ARTKQTARKSTGGKAPRKQ
Nature of the experiment: FP. The settings on record: domain or fragment; chains chain; modification not given; K4me1 (monomethyl-lysine at 4); FITC-labeled.

Experiment [3] concerns the target T3, fluorescently labeled H3 peptide without modification (Homo sapiens).
T3 chain: ARTKQTARKSTGGKAPRKQ
Nature of the experiment: FP. The following applies: domain or fragment; chains chain; modification not given; FITC-labeled.

Experiment [4] concerns the target T4, fluorescently labeled H3 peptide with K9me2 (Homo sapiens).
T4 chain: ARTKQTARKSTGGKAPRKQ
Nature of the experiment: FP. The settings on record: domain or fragment; chains chain; modification not given; K9me2 (dimethyl-lysine at 9); FITC-labeled.

The target of experiment [5] is fluorescently labeled H3 peptide with K4me1 and K9me2. Nature of the experiment: fluorescence polarisation; fluorescence anisotropy titration; 100 nM FITC-labeled peptide in the cuvette, protein added stepwise; 23°C; 100 mM KCl, 20 mM HEPES pH 7.5, 10% v/v glycerol. (In general: In fluorescence polarisation assays a small probe gives low polarisation when free and higher when bound to something large.)

B1: GST-fused Tandem-Tudor domain (TTD) of human UHRF1, residues 126-280, wild type, Q96T88 126-280 (protein)
chain: MWDETELGLYKVNEYVDARDTNMGAWFEAQVVRVTRKAPSRDEPCSSTSRPALEEDVIYHVKYDDYPENGVVQMNSRDVRARARTIIKWQDLEVGQVVMLNYNPDNPKERGFWYDAEISRKRETRTARELYANVVLGDDSLNDCRIIFVDEVFKI
Broadly, the Kd is the concentration at which binding is half-saturated. A higher Kd goes with lower affinity. Consider B1, for which the Kd in experiment [1] is 300 nM; in experiment [2] it was 3640 nM; in experiment [3], over 9000 nM; in experiment [4] it was 640 nM.

B2: GST-fused Tandem-Tudor domain (TTD) of human UHRF1, residues 126-280, wild type (domain or fragment)
chain: MWDETELGLYKVNEYVDARDTNMGAWFEAQVVRVTRKAPSRDEPCSSTSRPALEEDVIYHVKYDDYPENGVVQMNSRDVRARARTIIKWQDLEVGQVVMLNYNPDNPKERGFWYDAEISRKRETRTARELYANVVLGDDSLNDCRIIFVDEVFKI
B2: the fold preference over the H3K9me2 peptide in experiment [5] was over 2 fold.
